# B1: Serine/threonine-protein kinase PBS1 (Arabidopsis thaliana (Mouse-ear cress)), Q9FE20 (parent)
# chain: MGCFSCFDSSDDEKLNPVDESNHGQKKQSQPTVSNNISGLPSGGEKLSSKTNGGSKRELLLPRDGLGQIAAHTFAFRELAAATMNFHPDTFLGEGGFGRVYKGRLDSTGQVVAVKQLDRNGLQGNREFLVEVLMLSLLHHPNLVNLIGYCADGDQRLLVYEFMPLGSLEDHLHDLPPDKEALDWNMRMKIAAGAAKGLEFLHDKANPPVIYRDFKSSNILLDEGFHPKLSDFGLAKLGPTGDKSHVSTRVMGTYGYCAPEYAMTGQLTVKSDVYSFGVVFLELITGRKAIDSEMPHGEQNLVAWARPLFNDRRKFIKLADPRLKGRFPTRALYQALAVASMCIQEQAATRPLIADVVTALSYLANQAYDPSKDDSRRNRDERGARLITRNDDGGGSGSKFDLEGSEKEDSPRETARILNRDINRERAVAEAKMWGESLREKRRQSEQGTSESNSTG
# partner: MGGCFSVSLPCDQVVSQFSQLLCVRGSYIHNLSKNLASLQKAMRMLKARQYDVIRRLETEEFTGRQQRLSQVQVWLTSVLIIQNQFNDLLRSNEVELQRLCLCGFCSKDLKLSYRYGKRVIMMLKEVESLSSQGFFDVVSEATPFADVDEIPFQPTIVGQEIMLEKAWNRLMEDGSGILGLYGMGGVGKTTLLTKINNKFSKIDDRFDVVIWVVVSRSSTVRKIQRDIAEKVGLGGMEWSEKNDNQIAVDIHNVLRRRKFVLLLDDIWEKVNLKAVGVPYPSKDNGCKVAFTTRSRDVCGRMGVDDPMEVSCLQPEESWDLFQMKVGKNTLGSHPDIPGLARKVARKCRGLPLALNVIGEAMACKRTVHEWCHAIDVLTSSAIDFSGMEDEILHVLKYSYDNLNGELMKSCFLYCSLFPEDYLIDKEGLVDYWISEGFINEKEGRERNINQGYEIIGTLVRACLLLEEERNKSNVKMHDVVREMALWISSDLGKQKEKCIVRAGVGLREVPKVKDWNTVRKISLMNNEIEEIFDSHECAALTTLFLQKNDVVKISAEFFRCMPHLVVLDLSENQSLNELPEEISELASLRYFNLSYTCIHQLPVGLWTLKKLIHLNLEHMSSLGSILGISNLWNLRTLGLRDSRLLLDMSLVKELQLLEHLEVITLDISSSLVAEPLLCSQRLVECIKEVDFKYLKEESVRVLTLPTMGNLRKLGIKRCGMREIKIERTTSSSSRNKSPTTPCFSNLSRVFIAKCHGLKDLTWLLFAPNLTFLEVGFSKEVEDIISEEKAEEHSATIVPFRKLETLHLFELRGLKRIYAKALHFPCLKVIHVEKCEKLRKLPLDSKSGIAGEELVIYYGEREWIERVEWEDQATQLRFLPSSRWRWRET
# Variants of: B1
# Conditions: with rps5_arath RPS5, O64973
row,effect of a mutation on the interaction,Variant
1,disrupting interaction strength,MGCFSCFDSSDDEKLNPVDESNHGQKKQSQPTVSNNISGLPSGGEKLSSKTNGGSKRELLLPRDGLGQIAAHTFAFRELAAATMNFHPDTFLGEGGFGRVYKGRLDSTGQVVAVKQLDRNGLQGNREFLVEVLMLSLLHHPNLVNLIGYCADGDQRLLVYEFMPLGSLEDHLHDLPPDKEALDWNMRMKIAAGAAKGLEFLHDKANPPVIYRDFKSSNILLDEGFHPKLSDFGLAKLGPTGDKSHVSTRVMRTYGYCAPEYAMTGQLTVKSDVYSFGVVFLELITGRKAIDSEMPHGEQNLVAWARPLFNDRRKFIKLADPRLKGRFPTRALYQALAVASMCIQEQAATRPLIADVVTALSYLANQAYDPSKDDSRRNRDERGARLITRNDDGGGSGSKFDLEGSEKEDSPRETARILNRDINRERAVAEAKMWGESLREKRRQSEQGTSESNSTG [G252R]
2,disrupting interaction strength,MGCFSCFDSSDDEKLNPVDESNHGQKKQSQPTVSNNISGLPSGGEKLSSKTNGGSKRELLLPRDGLGQIAAHTFAFRELAAATMNFHPDTFLGEGGFGRVYKGRLDSTGQVVAVNQLDRNGLQGNREFLVEVLMLSLLHHPNLVNLIGYCADGDQRLLVYEFMPLGSLEDHLHDLPPDKEALDWNMRMKIAAGAAKGLEFLHDKANPPVIYRDFKSSNILLDEGFHPKLSDFGLAKLGPTGDKSHVSTRVMGTYGYCAPEYAMTGQLTVKSDVYSFGVVFLELITGRKAIDSEMPHGEQNLVAWARPLFNDRRKFIKLADPRLKGRFPTRALYQALAVASMCIQEQAATRPLIADVVTALSYLANQAYDPSKDDSRRNRDERGARLITRNDDGGGSGSKFDLEGSEKEDSPRETARILNRDINRERAVAEAKMWGESLREKRRQSEQGTSESNSTG [K115N]

# — IntAct's records for PubMed 17277084
